# What was measured:
# human CD33 G249A (human) = human CD33 G249A (human) (UniProt P20138); assay: alanine scan, flow cytometry
# human CD33 P244A (human) = human CD33 P244A (human) (UniProt P20138); assay: alanine scan, flow cytometry
# human CD33 T239A (human) = human CD33 T239A (human) (UniProt P20138); assay: alanine scan, flow cytometry
# human CD33 A108S (human) = human CD33 A108S (human) (UniProt P20138); assay: alanine scan, flow cytometry, HEK293-T
# human CD33 A74S (human) = human CD33 A74S (human) (UniProt P20138); assay: alanine scan, flow cytometry, HEK293-T
# human CD33 C163A (human) = human CD33 C163A (human) (UniProt P20138); assay: alanine scan, flow cytometry, HEK293-T
# human CD33 C169A (human) = human CD33 C169A (human) (UniProt P20138); assay: alanine scan, flow cytometry, HEK293-T
# Chain of human CD33 C169A (human) (P20138 18-364 C169A limits assumed): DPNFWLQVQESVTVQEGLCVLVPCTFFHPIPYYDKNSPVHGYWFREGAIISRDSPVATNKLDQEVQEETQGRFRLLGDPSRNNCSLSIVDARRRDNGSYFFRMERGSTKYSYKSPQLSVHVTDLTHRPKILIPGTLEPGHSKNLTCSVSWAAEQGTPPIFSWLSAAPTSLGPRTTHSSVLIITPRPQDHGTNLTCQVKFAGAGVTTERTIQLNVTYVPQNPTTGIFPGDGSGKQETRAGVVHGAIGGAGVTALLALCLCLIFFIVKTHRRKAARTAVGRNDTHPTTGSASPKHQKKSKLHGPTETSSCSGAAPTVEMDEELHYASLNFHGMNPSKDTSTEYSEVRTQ
# human CD33 D112A (human) = human CD33 D112A (human) (UniProt P20138); assay: alanine scan, flow cytometry, HEK293-T
# human CD33 D51A (human) = human CD33 D51A (human) (UniProt P20138); assay: alanine scan, flow cytometry, HEK293-T
# Chain of human CD33 D51A (human) (P20138 18-364 D51A limits assumed): as the sequence (P20138 18-364 C169A limits assumed) above, with D34A, A152C counted along it
# human CD33 D95A (human) = human CD33 D95A (human) (UniProt P20138); assay: alanine scan, flow cytometry, HEK293-T
# human CD33 E170A (human) = human CD33 E170A (human) (UniProt P20138); assay: alanine scan, flow cytometry, HEK293-T
# Chain of human CD33 E170A (human) (P20138 18-364 E170A limits assumed): as the sequence (P20138 18-364 C169A limits assumed) above, with A152C, E153A counted along it
# human CD33 E85A (human) = human CD33 E85A (human) (UniProt P20138); assay: alanine scan, flow cytometry, HEK293-T
# human CD33 F118A (human) = human CD33 F118A (human) (UniProt P20138); assay: alanine scan, flow cytometry, HEK293-T
# Chain of human CD33 F118A (human) (P20138 18-364 F118A limits assumed): as the sequence (P20138 18-364 C169A limits assumed) above, with F101A, A152C counted along it
# human CD33 F61A (human) = human CD33 F61A (human) (UniProt P20138); assay: alanine scan, flow cytometry, HEK293-T
# human CD33 G151A (human) = human CD33 G151A (human) (UniProt P20138); assay: alanine scan, flow cytometry, HEK293-T
# human CD33 G156A (human) = human CD33 G156A (human) (UniProt P20138); assay: alanine scan, flow cytometry, HEK293-T
# Chain of human CD33 G156A (human) (P20138 18-364 G156A limits assumed): as the sequence (P20138 18-364 C169A limits assumed) above, with G139A, A152C counted along it
# human CD33 G64A (human) = human CD33 G64A (human) (UniProt P20138); assay: alanine scan, flow cytometry, HEK293-T
# human CD33 G94A (human) = human CD33 G94A (human) (UniProt P20138); assay: alanine scan, flow cytometry, HEK293-T
# Chain of human CD33 G94A (human) (P20138 18-364 G94A limits assumed): as the sequence (P20138 18-364 C169A limits assumed) above, with G77A, A152C counted along it
# human CD33 H57A (human) = human CD33 H57A (human) (UniProt P20138); assay: alanine scan, flow cytometry, HEK293-T
# human CD33 K126A (human) = human CD33 K126A (human) (UniProt P20138); assay: alanine scan, flow cytometry, HEK293-T
# human CD33 L103A (human) = human CD33 L103A (human) (UniProt P20138); assay: alanine scan, flow cytometry, HEK293-T
# human CD33 L134A (human) = human CD33 L134A (human) (UniProt P20138); assay: alanine scan, flow cytometry, HEK293-T
# Chain of human CD33 L134A (human) (P20138 18-364 L134A limits assumed): as the sequence (P20138 18-364 C169A limits assumed) above, with L117A, A152C counted along it
# human CD33 P132A (human) = human CD33 P132A (human) (UniProt P20138); assay: alanine scan, flow cytometry, HEK293-T
# Chain of human CD33 P132A (human) (P20138 18-364 P132A limits assumed): as the sequence (P20138 18-364 C169A limits assumed) above, with P115A, A152C counted along it
# human CD33 P150A (human) = human CD33 P150A (human) (UniProt P20138); assay: alanine scan, flow cytometry, HEK293-T
# human CD33 P155A (human) = human CD33 P155A (human) (UniProt P20138); assay: alanine scan, flow cytometry, HEK293-T
# human CD33 P174A (human) = human CD33 P174A (human) (UniProt P20138); assay: alanine scan, flow cytometry, HEK293-T
# human CD33 P189A (human) = human CD33 P189A (human) (UniProt P20138); assay: alanine scan, flow cytometry, HEK293-T
# human CD33 Q87A (human) = human CD33 Q87A (human) (UniProt P20138); assay: alanine scan, flow cytometry, HEK293-T
# Chain of human CD33 Q87A (human) (P20138 18-364 Q87A limits assumed): as the sequence (P20138 18-364 C169A limits assumed) above, with Q70A, A152C counted along it
# human CD33 R110A (human) = human CD33 R110A (human) (UniProt P20138); assay: alanine scan, flow cytometry, HEK293-T
# Chain of human CD33 R110A (human) (P20138 18-364 R110A limits assumed): as the sequence (P20138 18-364 C169A limits assumed) above, with R93A, A152C counted along it
# human CD33 R111A (human) = human CD33 R111A (human) (UniProt P20138); assay: alanine scan, flow cytometry, HEK293-T
# human CD33 R62A (human) = human CD33 R62A (human) (UniProt P20138); assay: alanine scan, flow cytometry, HEK293-T
# Chain of human CD33 R62A (human) (P20138 18-364 R62A limits assumed): as the sequence (P20138 18-364 C169A limits assumed) above, with R45A, A152C counted along it
# human CD33 R69A (human) = human CD33 R69A (human) (UniProt P20138); assay: alanine scan, flow cytometry, HEK293-T
# human CD33 R98A (human) = human CD33 R98A (human) (UniProt P20138); assay: alanine scan, flow cytometry, HEK293-T
# human CD33 S102A (human) = human CD33 S102A (human) (UniProt P20138); assay: alanine scan, flow cytometry, HEK293-T
# human CD33 S128A (human) = human CD33 S128A (human) (UniProt P20138); assay: alanine scan, flow cytometry, HEK293-T
# human CD33 S131A (human) = human CD33 S131A (human) (UniProt P20138); assay: alanine scan, flow cytometry, HEK293-T
# human CD33 S135A (human) = human CD33 S135A (human) (UniProt P20138); assay: alanine scan, flow cytometry, HEK293-T
# Chain of human CD33 S135A (human) (P20138 18-364 S135A limits assumed): as the sequence (P20138 18-364 C169A limits assumed) above, with S118A, A152C counted along it
# human CD33 S164A (human) = human CD33 S164A (human) (UniProt P20138); assay: alanine scan, flow cytometry, HEK293-T
# human CD33 S194A (human) = human CD33 S194A (human) (UniProt P20138); assay: alanine scan, flow cytometry, HEK293-T
# human CD33 S195A (human) = human CD33 S195A (human) (UniProt P20138); assay: alanine scan, flow cytometry, HEK293-T
# human CD33 S71A (human) = human CD33 S71A (human) (UniProt P20138); assay: alanine scan, flow cytometry, HEK293-T
# human CD33 T139A (human) = human CD33 T139A (human) (UniProt P20138); assay: alanine scan, flow cytometry, HEK293-T
# human CD33 V136A (human) = human CD33 V136A (human) (UniProt P20138); assay: alanine scan, flow cytometry, HEK293-T
# human CD33 V56A (human) = human CD33 V56A (human) (UniProt P20138); assay: alanine scan, flow cytometry, HEK293-T
# Chain of human CD33 V56A (human) (P20138 18-364 V56A limits assumed): as the sequence (P20138 18-364 C169A limits assumed) above, with V39A, A152C counted along it
# human CD33 W60A (human) = human CD33 W60A (human) (UniProt P20138); assay: alanine scan, flow cytometry, HEK293-T
# Chain of human CD33 W60A (human) (P20138 18-364 W60A limits assumed): as the sequence (P20138 18-364 C169A limits assumed) above, with W43A, A152C counted along it
# human CD33 Y59A (human) = human CD33 Y59A (human) (UniProt P20138); assay: alanine scan, flow cytometry, HEK293-T
substance,measurement,setting,value
Refmab #7 (WM53) (antibody),Mean % WT Binding,human CD33 G249A (human),114 % WT binding
same,Mean % WT Binding,human CD33 P244A (human),99 % WT binding
same,Mean % WT Binding,human CD33 T239A (human),112 % WT binding
same,Mean % WT Binding,human CD33 A108S (human),120 % WT binding
same,Mean % WT Binding,human CD33 A74S (human),118 % WT binding
same,Mean % WT Binding,human CD33 C163A (human),102 % WT binding
same,Mean % WT Binding,human CD33 C169A (human),90 % WT binding
same,Mean % WT Binding,human CD33 D112A (human),47.9 % WT binding
same,Mean % WT Binding,human CD33 D51A (human),9.2 % WT binding
same,Mean % WT Binding,human CD33 D95A (human),104 % WT binding
same,Mean % WT Binding,human CD33 E170A (human),118 % WT binding
same,Mean % WT Binding,human CD33 E85A (human),126 % WT binding
same,Mean % WT Binding,human CD33 F118A (human),3.2 % WT binding
same,Mean % WT Binding,human CD33 F61A (human),123 % WT binding
same,Mean % WT Binding,human CD33 G151A (human),121 % WT binding
same,Mean % WT Binding,human CD33 G156A (human),112 % WT binding
same,Mean % WT Binding,human CD33 G64A (human),119 % WT binding
same,Mean % WT Binding,human CD33 G94A (human),99.2 % WT binding
same,Mean % WT Binding,human CD33 H57A (human),112 % WT binding
same,Mean % WT Binding,human CD33 K126A (human),156 % WT binding
same,Mean % WT Binding,human CD33 L103A (human),109 % WT binding
same,Mean % WT Binding,human CD33 L134A (human),96.6 % WT binding
same,Mean % WT Binding,human CD33 P132A (human),104 % WT binding
same,Mean % WT Binding,human CD33 P150A (human),115 % WT binding
same,Mean % WT Binding,human CD33 P155A (human),107 % WT binding
same,Mean % WT Binding,human CD33 P174A (human),122 % WT binding
same,Mean % WT Binding,human CD33 P189A (human),119 % WT binding
same,Mean % WT Binding,human CD33 Q87A (human),90.1 % WT binding
same,Mean % WT Binding,human CD33 R110A (human),95.9 % WT binding
same,Mean % WT Binding,human CD33 R111A (human),94 % WT binding
same,Mean % WT Binding,human CD33 R62A (human),114 % WT binding
same,Mean % WT Binding,human CD33 R69A (human),146 % WT binding
same,Mean % WT Binding,human CD33 R98A (human),138 % WT binding
same,Mean % WT Binding,human CD33 S102A (human),111 % WT binding
same,Mean % WT Binding,human CD33 S128A (human),179 % WT binding
same,Mean % WT Binding,human CD33 S131A (human),114 % WT binding
same,Mean % WT Binding,human CD33 S135A (human),101 % WT binding
same,Mean % WT Binding,human CD33 S164A (human),123 % WT binding
same,Mean % WT Binding,human CD33 S194A (human),112 % WT binding
same,Mean % WT Binding,human CD33 S195A (human),117 % WT binding
same,Mean % WT Binding,human CD33 S71A (human),104 % WT binding
same,Mean % WT Binding,human CD33 T139A (human),121 % WT binding
same,Mean % WT Binding,human CD33 V136A (human),85.9 % WT binding
same,Mean % WT Binding,human CD33 V56A (human),117 % WT binding
same,Mean % WT Binding,human CD33 W60A (human),2.1 % WT binding
same,Mean % WT Binding,human CD33 Y59A (human),127 % WT binding

# Source: patent publication US20260242735A1
